T1: MSR1-mediated Dil-OxLDL uptake in HEK293.Myc.hMSR1 cells (Homo sapiens, UniProt P21757)
T1 construct: expressed in transfected cells; host or cells: HEK293 (lentiviral transduction, hygromycin selection)
T1 sequence (P21757 1-451): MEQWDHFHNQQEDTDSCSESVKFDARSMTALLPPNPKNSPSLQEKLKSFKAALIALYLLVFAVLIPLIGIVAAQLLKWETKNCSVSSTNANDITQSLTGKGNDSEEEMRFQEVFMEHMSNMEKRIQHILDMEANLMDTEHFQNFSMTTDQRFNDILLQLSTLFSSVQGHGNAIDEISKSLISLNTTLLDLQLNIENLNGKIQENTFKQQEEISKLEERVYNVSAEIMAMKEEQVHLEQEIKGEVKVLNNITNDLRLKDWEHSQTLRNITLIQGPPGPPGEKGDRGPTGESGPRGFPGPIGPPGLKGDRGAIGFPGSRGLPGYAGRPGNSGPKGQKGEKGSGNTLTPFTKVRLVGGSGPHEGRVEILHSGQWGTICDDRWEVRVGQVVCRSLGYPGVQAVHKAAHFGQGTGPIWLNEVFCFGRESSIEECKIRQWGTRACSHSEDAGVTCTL

T2: His9-mMSR1 (mouse MSR1 extracellular domain) (Mus musculus, UniProt P30204)
T2 construct: mouse MSR1 extracellular domain expressed with a N-terminal nonahistidine tag; His9 (nonahistidine) (N); purchased R&D Systems 1797-MS
T2 sequence (P30204 79-458 limits assumed): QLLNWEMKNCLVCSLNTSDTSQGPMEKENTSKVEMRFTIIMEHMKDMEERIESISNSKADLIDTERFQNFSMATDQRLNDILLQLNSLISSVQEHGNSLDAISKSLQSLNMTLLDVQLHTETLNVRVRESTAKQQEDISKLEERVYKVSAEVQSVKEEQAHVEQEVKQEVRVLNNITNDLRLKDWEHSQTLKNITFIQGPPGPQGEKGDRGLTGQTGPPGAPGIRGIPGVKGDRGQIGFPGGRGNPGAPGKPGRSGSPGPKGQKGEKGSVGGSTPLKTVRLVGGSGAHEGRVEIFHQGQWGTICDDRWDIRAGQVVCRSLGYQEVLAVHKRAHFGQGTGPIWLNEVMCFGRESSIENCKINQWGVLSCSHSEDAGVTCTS


Key:
[1] = target: T1, MSR1-mediated Dil-OxLDL uptake in HEK293.Myc.hMSR1 cells; assay: Ligand uptake assay, Dil-OxLDL; format: cell-based; conditions: 10 μg/mL Dil-OxLDL; for Dil-Oxidized LDL % Inhibition: maximum inhibition; for IC50: read-out: Dil-Oxidized LDL IC50
Description: A bioassay was generated to assess the ability of the exemplary anti-MSR1 antibodies to regulate the uptake of certain MSR1 ligands.
Generation of MSR1-expressing cell lines for assay. […] The resulting cell line, referred to here as “HEK293.Myc.hMSR1”, was selected and maintained in DMEM containing 10% FIBS, NEAA, penicillin/streptomycin, L-glutamine, and 100 μg/mL hygromycin.
Ligand uptake assay. […] After 30 minutes, either oxidized or acetylated low-density lipoprotein (LDL) labeled with 1,1′dioctadecyl-3,3,3′,3′-tetramethylindocarbocyanine perchlorate (referred to as “Dil-OxLDL” or “Dil-AcLDL,” respectively) was added to the cells at a constant concentration of 10 μg/mL. […] Results were analyzed using nonlinear regression (4-parameter logistics) with the Prism 7 program to obtain EC50 and IC50 values. The percentage of inhibition was calculated with the Relative Fluorescent Unit (RFU) values by using the following equation: […]
In the equation, “RFUBaseline” is the fluorescence value from the cells treated with 10 μg/mL ligand without antibodies, “RFUInhibition” is the minimum fluorescence value with for a particular antibody with 10 μg/mL ligand, and “RFUBackground” is the fluorescence value from cells without any ligand or antibodies.

[2] = target: T2, His9-mMSR1 (mouse MSR1 extracellular domain); assay: OCTET bio-layer interferometry binding kinetics of anti-MSR1 mAbs; conditions: 25° C., antibody-capture format, analyte His9-mMSR1; for kd: * = no dissociation observed, kd manually fixed at 5.00E−05; for t½: dissociative half-life
Description: Binding affinities and kinetic constants of human anti-MSR1 antibodies for different MSR1 reagents were determined using a real time, label-free bio-layer interferometry assay on an OCTET® HTX biosensor platform (Pall FortéBio Corp., Menlo Park, CA). The experiment was performed at 25° C. in 10 mM HEPES, 150 mM NaCl, 3 mM EDTA, 0.05% v/v Surfactant Tween-20, and 1 mg/mL BSA, pH7.4 (HBS-EBT) buffer with the plate shaking at the speed of 1000 rpm. Binding studies were performed on human MSR1 extracellular domain expressed with a N-terminal nonahistidine tag (His9-hMSR1; R&D Systems, Cat #2708-MS), monkey MSR1 extracellular domain expressed with a N-terminal myc-myc-hexahistidine tag (HMM-mfMSR1; SEQ ID NO: 418), and mouse MSR1 extracellular domain expressed with a N-terminal nonahistidine tag (His9-mMSR1; R&D Systems, Cat #1797-MS). The anti-MSR1 monoclonal antibodies were captured by dipping either anti-human Fc (AHC) or anti-mouse Fc (AMC) Octet biosensors in wells containing 5 μg/mL or 10 μg/mL of anti-MSR1 monoclonal antibody for 45-90 seconds. The AHC captured anti-MSR1 monoclonal antibodies were then dipped in wells containing 50 nM of His9-mMSR1, while the AMC captured anti-MSR1 monoclonal antibodies were dipped in wells containing different concentrations of His9-hMSR1 or HMM-mfMSR1 (100 nM, 25 nM) or 100 nM His9-mMSR1. The binding of different MSR1 reagents to the captured anti-MSR1 monoclonal antibody was measured for 4 minutes and the dissociation of monoclonal antibody bound MSR1 reagent was monitored for 8-10 minutes in HBS-EBT buffer.
The association rate (ka) and dissociation rate (kd) were determined by fitting the real-time binding sensorgrams to a 1:1 binding model with mass transport limitation using Scrubber 2.0c curve-fitting software. Binding dissociation equilibrium constant (KD) and dissociative half-life (t½) were calculated from the kinetic rates as: […]
Binding kinetics parameters for His9-hMSR1, HMM-mfMSR1 or His9-mMSR1 binding to different anti-MSR1 monoclonal antibodies of the invention at 25° C. are shown in Tables 8 and 9.

Row | Dil-Oxidized LDL IC50 [1] | maximum inhibition of Dil-OxLDL uptake [1] | Dil-Oxidized LDL % Inhibition [1] | IC50 [1] | Kd [2] | ka [2] | kd [2] | t½ [2] | Molecule
1 | no inhibition | no inhibition | no inhibition |  |  |  |  |  | H1H27729P-N297Q: anti-MSR1 antibody "made with an N297Q single point mutation in human Fcγ portion" (antibody, V domains shown) VH: QVQLVESGGGLVKPGGSLRLSCAASGFIFSDYYMSWIRQAPGKGLEWVSYISSSGTTIYGDSVKGRFTMSRDNAKNSLYLQMNSLRAEDTAVYYCARNYALFDYWGQGTLVTVSS VL: DIQMTQSPSSLSASVGDRVTITCQASQDISKYLNWYQQKPGKAPKLLIYYTSNLETGVPSRFSGSGSGTDFTFTISSLQPEDIATYYCHQSDYLPFTFGPGTKVDIKR
2 |  |  | 94% | 1.8 nM | 1.89 nM | 374000 M⁻¹ s⁻¹ | 0.000708 s⁻¹ | 16 min | H1H21227N-N297Q: "modified versions of 21227N (H1H21227N-N297Q and H1H21227N-N297D)"; anti-MSR1 antibody "with a N297Q single point mutation" (antibody, V domains shown) VH: QVQLVQSGAEVKKPGASVKVSCKVSGYTLTELSIHWVRQVPGKGLEWMGGFDPEEGETIFAQEFRDRVTLTEDTSPDTAYMELSSLKSEDAAVYYCTTPRYCNNGICYDYWGQGTLVTVSS VL: DIQMTQSPSSLSASVGDRVTITCRASQSISNYLNWYQQKPGKAPKLLIYTASSLQSGVPSRFSGSGSGTDFTLTISSLQTEDFATYYCQQSYSNFPITFGQGTRLEIKR
3 |  |  |  |  | 1.71 nM | 461000 M⁻¹ s⁻¹ | 0.000786 s⁻¹ | 15 min | H1H21227N-N297D: "The 21227N antibody was also produced as a third version with a N297D mutation" (antibody, V domains shown) VH: QVQLVQSGAEVKKPGASVKVSCKVSGYTLTELSIHWVRQVPGKGLEWMGGFDPEEGETIFAQEFRDRVTLTEDTSPDTAYMELSSLKSEDAAVYYCTTPRYCNNGICYDYWGQGTLVTVSS VL: DIQMTQSPSSLSASVGDRVTITCRASQSISNYLNWYQQKPGKAPKLLIYTASSLQSGVPSRFSGSGSGTDFTLTISSLQTEDFATYYCQQSYSNFPITFGQGTRLEIKR
4 |  |  | 89% | 2 nM | 1.97 nM | 415000 M⁻¹ s⁻¹ | 0.000816 s⁻¹ | 14 min | H1H21227N: "anti-MSR1 antibodies ... (21227N, 21231N, 21234N) were produced with the original human Fcγ portion"; "H1H" = human IgG1 Fc (antibody, V domains shown, human IgG1 Fc, "anti-MSR1 antibodies ; (21227N, 21231N, 21234N) were produced with the original human Fcγ portion"; "H1H" = human IgG1 Fc) VH: QVQLVQSGAEVKKPGASVKVSCKVSGYTLTELSIHWVRQVPGKGLEWMGGFDPEEGETIFAQEFRDRVTLTEDTSPDTAYMELSSLKSEDAAVYYCTTPRYCNNGICYDYWGQGTLVTVSS VL: DIQMTQSPSSLSASVGDRVTITCRASQSISNYLNWYQQKPGKAPKLLIYTASSLQSGVPSRFSGSGSGTDFTLTISSLQTEDFATYYCQQSYSNFPITFGQGTRLEIKR
5 |  |  | 78% | 3.6 nM |  |  |  |  | H1H21231N: "anti-MSR1 antibodies ... (21227N, 21231N, 21234N) were produced with the original human Fcγ portion"; "H1H" = human IgG1 Fc (antibody, V domains shown, human IgG1 Fc, "anti-MSR1 antibodies ; (21227N, 21231N, 21234N) were produced with the original human Fcγ portion"; "H1H" = human IgG1 Fc) VH: EVQLVESGGGLVQPGGSLRLSCAASGFTFSDHYMDWVRQAPGKGLEWVGRTRNKANSHTTEYTASVTGRFTISRDDSRNSLYLQMNSLKTEDTAVYYCVRAGIIGTLFDYWGQGTLVTVSS VL: DIQMTQFPSSLSASVGDRVTITCRASQSISSFLNWFQQKPGKAPKFLIYAASSLQSGVPSRFSGSGSGTDFTLTISSLQPEDFATYYCQQSYSSPPITFGQGTRLEIKR

Reference: US12497460B2, “Anti-MSR1 antibodies and methods of use thereof” (REGENERON PHARMACEUTICALS, INC., priority 2018, dated 2025)
